Test results published in a protein production outcome set (Wang et al. 2014).

Test: label from the status in PepcDB records

| Sequence | protein production |
| --- | --- |
| MHQLWTYDPAAGTVEVGAGTTNEGLVDGPGEEAWFAQPSGLAATADRLWLADSETSALRWVDLDGAVHTAVGTGLFDFGHRDGDAEQALLQHPLGVTALPDGSVAVSDTYNHALRRYDPATGEVTTLATDLREPSDAVLVGDDIVVVESARHRLTRLRLPEEAVRVASVAHRTQRAATEVAPGRLQLDVIFQAPAGQKLDTRYGPSTRLLVSSTPPELLLNGEGADPDLSRTLELNPAIPEGVLHVSAMAASCDDDPANEYPACHVHQQDWGVPVRLTEGGADRLPLVLAGMDALEHHHHHH | failed |
| MLLLSIYISIAIGISFICSVLEAVLLSISPSYIAQLNQQGHPAAEQLSKLKSDIDRPLASILTLNTIAHTIGAATAGAQAAVVFGSEALGIFSAVLTLAILVLSEIVPKTIGATYWRQLAPAAAVSLRWMVWALTPFVWFSEQITKRLARNHEAPKMRDELSAMAILARESGEFAEGESKILSNLLGIQDVPVTQVMTPRPVVFRVDATMTINEFLDKHKDTPFSRPLVYSEQKDNIIGFVHRLELFKMQQSGSGQKQLGAVMRPIQVVLNNTALPKVFDQMMTHRLQLALVVDEYGTVLGLVTLEDIFEHLVGEEIIDEADKSTDMQELAYQRWESWKEMHGVIESRDDDDEELEKQNVEPETQEPTKPDSKES | failed |
| MPPPLPYDAMRSVWTDTAAPAMATAPLAGHADCDVAIVGAGITGLSAALHLAERGLRACVLEARDPGWGASGRNGGQVIPGIKHDPDEILARHGRERGEPLLHMVGTAADTVFDLIDRYGLDLVQAQIRLAAGERLDRVVPADLQPSGHAIELRVYAEDPVRFIPSPGTLAVFELPQGPGVRTETGYHAGNAVSPHYDPMIAKIIVHGADRAQAIARAEQALADTEIAGVKTNLPFLARALAFEPWRQGRLHTGIVARTLAEPAPAALTALEHHHHHH | failed |
| FQQTQDWVFIIDEKISRITANQSMRAVFDWPEEEFDFSDKLLGVSQKRRSFYRKLMLSLKEGEHWRGEELIVTANKDEYHVIINVTVGFSSVTNALHYLFVLTDIS | failed |
| MDKKPLNTLISATGLWMSRTGTIHKIKHHEVSRSKIYIEMACGDHLVVNNSRSSRTARALRHHKYRKTCKRCRVSDEDLNKFLTKANEDQTSVKVKVVSAPTRTKKAMPKSVARAPKPLENTEAAQAQPSGSKFSPAIPVSTQESVSVPASVSTSISSISTGATASALVKGNTNPITSMSAPVQASAPALTKSQTDRLEVLLNPKDEISLNSGKPFRELESELLSRRKKDLQQIYAEERENYLGKLEREITRFFVDRGFLEIKSPILIPLEYIERMGIDNDTELSKQIFRVDKNFCLRPMLAPNLYNYLRKLDRALPDPIKIFEIGPCYRKESDGKEHLEEFTMLNFCQMGSGCTRENLESIITDFLNHLGIDFKIVGDSCMVYGDTLDVMHGDLELSSAVVGPIPLDREWGIDKPWIGAGFGLERLLKVKHDFKNIKRAARSESYYNGISTNL | not failed |
| MTNTHEINALKKYVRATNFLATSQIYLKQNVLHKRPLAHSDIKPRLLGHWGTCPGINFVYANINRLIVKHNRPFIYLVGPGHGFPAVQANLFIEGSLSHFYPETIPYNETGIEDICKKFSAAYGYPSHANPEAPGQILEGGELGYSLSVGWGAVLDNPDLIATVLVGDGESETGPLAASWYANRLVSPATNGAVLPIVHINGYKISGPTRMGRMSHEELDLEFRGLGYHPIIVDSEAEEDVYIQMATAMDTAYSMINDIQTRARKGEDIVK | failed |
| MNKSTCLMAAETPSKRWRLHCLAFSQRFVRAGPACSSREACSSPRAGWNPAGFRLPGRWSPFVALHLVCQIREALKLRSGHRTPSGAGSSMQPPPSLCGRALVALVLACGLSRIWGEERGFPPDRATPLLQTAEIMTPPTKTLWPKGSNASLARSLAPAEVPKGDRTAGSPPRTISPPPCQGPIEIKETFKYINTVVSCLVFVLGIIGNSTLLRIIYKNKCMRNGPNILIASLALGDLLHIVIDIPINVYKLLAEDWPFGAEMCKLVPFIQKASVGITVLSLCALSIDRYRAVASWSRIKGIGVPKWTAVEIVLIWVVSVVLAVPEAIGFDIITMDYKGSYLRICLLHPVQKTAFMQFYKTAKDWWLFSFYFCLPLAITAFFYTLMTCEMLRKKSGMQIALNDHLKQRREVAKTVFCLVLVFALCWLPLHLSRILKLTLYNQNDPNRCELLSFLLVLDYIGINMASLNSCINPIALYLVSKRFKNCFKSCLCCWCQSFEEKQSLEEKQSCLKFKANDHGYDNFRSSNKYSSS | failed |
| MDNEMNYGSDYKFIPATSIESGHGIEVLRDLFCYTIQIVNICFVGNPETNDFVLVDAGMPKCANEIISIAKDRFGTNSRPKAIILTHGHFDHVGGIIELIKHWDVHVYAHQMEIPFLTGQQSYPEPDPTVEGGMVAKMSPLFPNEPIDLGNNVKALPTDGTVPHMPEFRWIHTPGHTPGHISLFREKDRTLIAGDAFVTVKQEYLYKVITQEQEISGPPRYLTTDWKAAKESVLKLEKLKPLTAVTGHGIPMSGELLSTSLKTLVQEFDKIAVPDYGKYIDKKMHLEHHHHHH | not failed |
| MGQALGCIQVDQSNVAIKETFGKFDEVLEPGCHCLPWCLGSQVAGHLSLRVQQLDVRCETKTKDNVFVTVVASIQYRALAESAQDAFYKLSNTRNQIQAYVFDVIRASVPKLDLDSTFEQKNDIAKTVETELEKAMSHYGYEIVQTLIVDIEPDVHVKRAMNEINAASRMREAASEKAEAEKILQIKRAEGEAESKYLSGMGIARQRQAIVDGLRNSVLAFSESVPGTSSKDVMDMVLVTQYFDTLKEIGASSKSNSVFIPHGPGAVRDIASQIRDGLLQGNSAAE | failed |
| MSSATKSSPATGGYLHYATLAPWKTLLRTRAYPGSLAGGSEATEATVAMELAEDWLVESLRLYQDFHAFDLSGATRVLEWVGEKGVFVAGYESLKKNEILHLILPLRLSVKENQGLYPERDFKVRHGGFSDRAVFDLKHVPDTRLLVTSGLPGCYIQVWQIREDNDVIEAVSTIDVQDKEESLWPRVSIFCSAAPGILHGARLSGLRTVDVESRKITYSSDTTDSESLSSLQVLDADTFAFCGTSGRLGLVDTRQKWAPLETVSPRAGSSGERWCAEVRSKGQGPGPCIASLGSDGQLCLLDPRNLRDPVSSAQCPVFKSSPDPELLRVTWAPGLDNCLAISGFDGTVQIYDVTSWDGKKTQVEALFIHKGHIFLDGNEVESAPLVTTHTWHPSKPRTLLSAASDAALHVWDWVDLQAS | failed |
| MTPMPSSVKPVEGRSVLIEWQDGHSSLYENVYLREHCQCAECVHEWTGEKLISRERIPADIRPVSVSAVGNYALSIRFSDGHGTGVYSYELLRKICPCPLCKA | failed |
| MPFLYRLASLLIALLVLPVQAAEMRVALLRTSGVETLDALTVDGGSWVRRVPLSHTAVLIEHHAATLLFDTGLGRDIDAQFRADMPWWAAPLFAYQKVVPARDQLDAAGIRVDRILLSHAHWDHASGLVDFPEVPVWAPYEEIAFSRIATPPAAFPSQFRHGVRWQPYSFDPRPFMGFDESLDLFGDGRLVLVPLPGHTPGSVGLFVTLDSGRRLFFSGDTSWRLEGVEGPRQKFFAGRALVDRDPARTLAQLAKIRLLLRSDPRLSVIPAHDARVQAALGYFPHWLE | failed |
| MELTALDKLEIMELAARFEMSLDKEDVENYLATFASDGALQGFWGIAKGKEELRQGFYAMLDTFARGKRHCSSNAIIQGNYDEATMESYLTVVNREDLNRAGSAFVKDQVRKINGKWYLILRQIEVDPSLPLLQQSQQAGANA | not failed |
| MSSKDKKLSKPTSGRTGGIRTLSDLNRRSEPDSDSDSDGPQEYFTGGEKSGMLVQDPTKEPKHDDVDEIFNQARQLGAVEGPLEHPSSSRSFTGTGRLLSGESVPTALQQPEPVIHNIIFWSNGFTVDDGPLRKLDDPENASFLDSIRKSECPKELEPVDKRAPVHVNLMRRDEKCPEKEKLKVSFQGVGRTLGGASSSTASSQSNLTDVAAVQSPLQSLVVDETLPSTSIQLRLADGTRMVAKFNNHHTVNDIRGFIEFSRPGNPNNYTLQVMGFPPKPLTDPSQTIEQAGLASSVVIQKF | not failed |
| MKRMLAWLYAPLVFAGFIGAGVWWMSAGPASASGLLGVFGAALGVSFLAEWCLPYEPGWNRSQGDRLRDSLHALVNESLNALGLLALPGLVALLAHDGLWPQGWPLWGQLLLAIVIADCGITLAHYASHRLAWLWRLHAVHHSVQRMYGFNGLLKHPLHQLIEASAGLLPLVLLGIPLPVAQLLALAIAVQLLLQHSNVDMRLGPLRWIFAWAPVHRFHHMKYGRAGDVNFGLFFNLWDWLLGTAFYRDDYCMRQGDLGIGSRADYPVDYWPQLLEPFKAQRYGAEPVVPEQLRRRVRPASEA | failed |
